Numbering of substitutions follows the chain as printed.
T1: pan-hSYT2 (antigenic peptide for panning, Human SYT2 position 1-62) (human, lysine residue bound to biotin (position marked only in a picture of the sequence))
T1 construct: Synthetic biotinylated peptide, immobilised on streptavidin biosensors in the Octet measurements; also called N-terminal domain of human Synaptotagmin 2
T1 peptide: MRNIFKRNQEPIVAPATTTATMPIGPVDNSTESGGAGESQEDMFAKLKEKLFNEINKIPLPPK

B1: first monoclonal antibody according to the present invention (antibody, human IgG1, V domains shown)
VH: EVQLQESGAELVRPGASVKLSCKASGYTFTDYEMHWVKQTPVHGLEWIGAIDPETGGTAYNQKFKGKATLTADKSSSTAYMELRSLTSEDSAVYYCTRGNDGYNEDYWGQGTTLTVSS
VL: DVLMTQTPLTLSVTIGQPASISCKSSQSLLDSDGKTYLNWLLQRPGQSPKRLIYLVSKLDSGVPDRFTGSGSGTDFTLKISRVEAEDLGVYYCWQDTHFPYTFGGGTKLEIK
notes: Mouse VH and VL from a phage display scFv clone; also called first antibody; first anti-SYT2 antibody
B2: second monoclonal antibody according to the present invention (antibody, human IgG1, V domains shown)
VH: B1 VH with E1Q, E6Q, T113S
VL: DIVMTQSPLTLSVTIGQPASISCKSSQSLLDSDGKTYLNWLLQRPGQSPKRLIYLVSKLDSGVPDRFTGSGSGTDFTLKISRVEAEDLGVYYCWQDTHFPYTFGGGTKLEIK
notes: also called second antibody; second anti-SYT2 antibody

Experiments:
[1] = molecular target: T1, pan-hSYT2 (antigenic peptide for …); assay: BLI (Octet RED96e), biotinylated pan-hSYT2 on streptavidin biosensor, antigen loaded at 0.05 ug/mL
[2] = molecular target: T1, pan-hSYT2 (antigenic peptide for …); assay: BLI (Octet RED96e), same manner as Example 2, antigen loaded at 0.2 ug/mL

| Binder | Kd [1] | koff [1] | kon [1] | koff [2] |
| --- | --- | --- | --- | --- |
| B1 | 0.0267 nM | 7.01e-06 s⁻¹ | 263000 M⁻¹ s⁻¹ |  |
| B2 |  |  |  | 1.35e-05 s⁻¹ |

Reference: patent EP4722241A1 (Jiksak Bioengineering, Inc., dated 2024)
